The record followed here is patent publication US20250009854A1 (MACFARLANE BURNET INSTITUTE FOR MEDICAL RESEARCH AND PUBLIC …, published 2025).

In experiment [1] the target is T1, SARS-CoV-2 spike protein on Ramos-S cells (SARS-CoV-2, UniProt P0DTC2 14-1273).
T1 construct: whole, on cells
Description: flow cytometry on Ramos-S cells, FITC anti-hIgG-Fc.

Experiment [2] has as its target T2, dimeric rsFcγRIIIa (V158 form) (UniProt P08637 17-208).
T2 construct: also called dimeric recombinant soluble FcγRIIIa
Description: flow cytometry, biotinylated dimeric rsFcγRIIIa + streptavidin-APC on Ramos-S cells opsonised with 5 µg/ml ACE2-Fc.

The target of experiment [3] is T3, dimeric rsFcγRIIa (H131 allelic form) (UniProt P12318 34-217).
T3 construct: also called dimeric recombinant soluble FcγRIIa
T3 sequence: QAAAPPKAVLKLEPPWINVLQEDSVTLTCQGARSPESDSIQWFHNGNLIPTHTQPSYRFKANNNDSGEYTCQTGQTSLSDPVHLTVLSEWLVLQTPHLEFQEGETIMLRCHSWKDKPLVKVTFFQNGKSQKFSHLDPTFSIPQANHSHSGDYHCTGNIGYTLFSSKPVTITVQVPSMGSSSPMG
Description: flow cytometry, biotinylated dimeric rsFcγRIIa + streptavidin-APC on Ramos-S cells opsonised with 5 µg/ml ACE2-Fc.

The target of experiment [4] is T3, dimeric rsFcγRIIa (H131 allelic form). Nature of the experiment: flow cytometry, biotinylated dimeric rsFcγRIIa + streptavidin-APC on Ramos-S cells opsonised with ACE2-Fc.

T2 sequence (P08637 17-208 F176V limits assumed): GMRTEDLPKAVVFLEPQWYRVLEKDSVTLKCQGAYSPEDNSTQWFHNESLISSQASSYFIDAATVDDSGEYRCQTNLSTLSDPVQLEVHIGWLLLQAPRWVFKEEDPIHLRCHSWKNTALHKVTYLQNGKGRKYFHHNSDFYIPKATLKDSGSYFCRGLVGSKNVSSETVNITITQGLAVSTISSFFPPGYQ

B1: S2P6-WT mAb (antibody, V domains shown)
VH: EVQLVQSGAEVKKPGASVKVSCKASGYTFTSQYMHWVRQAPGQGLEWIGIINPSGVHTSYAQKFQGRVTLTRDTSTSTLYMELSSLRSEDTAVYYCARGSPKGAFDYWGQGTLVTVSS
VL: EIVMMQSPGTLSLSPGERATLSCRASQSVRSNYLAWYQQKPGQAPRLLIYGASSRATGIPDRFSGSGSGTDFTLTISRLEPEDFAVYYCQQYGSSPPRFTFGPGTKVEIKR
Consider B1, for which the binding result in experiment [1] is “binds”.

B2: CC40.8-WT mAb (antibody, V domains shown)
VH: EVQLLESGGGLVQPGGSLRLSCAASGFTFSSYVMTWARQAPGKGLEWVSAISGTGYTYYADSVKGRFTVSRDNSKNTLFLQMSSLRAEDTAVYYCAITMAPVVWGQGTTVTVSS
VL: SYELTQPPSVSVSPGQTARITCSGDALPKRYAYWYQQKSGQAPILVIYEDKKRPSGIPERLSGSKSGTVATLTISGAQVEDEADYYCYSTDSSGNHAVFGGGTQLTVLG
Turning to B2, the binding result in experiment [1] was “binds”.

B3: EflACE2-Fc-[change] (Fc fusion)
chain: ETGSTIEEQAKYFLDKFNHEAEDLFYQSSLASWNYNTNITEENVQNMNNAGDKWSAFLKEQSTTAQMYPLQEIQNLTVKLQLQALQQNGSSVLSEDKSKRLNTILNTMSTIYSTGKVCNPDNPQECLLLEPGLNEIMANSLDYNERLWAWESWRSEVGKQLRPLYEEYVVLKNEMARANHYEDYGDYWRGDYEVNGVDGYDYSRGQLIEDVEHTFEEIKPLYEHLHAYVRAKLMNAYPSYISPIGCLPAHLLGDMWGRFWTNLYSLTVPFGQKPNIDVTDAMVDQAWDAQRIFKEAEKFFVSVGLPNMTQGFWEYSMLTDPGNVQKAVCHPTAWDLGKGDFRILMCTKVTMDDFLTAHHEMGHIQYDMAYAAQPFLLRNGANEGFHEAVGEIMSLSAATPKHLKSIGLLSPDFQEDNETEINFLLKQALTIVGTLPFTYMLEKWRWMVFKGEIPKDQWMKKWWEMKREIVGVVEPVPHDETYCDPASLFHVSNDYSFIRYYTRTLYQFQFQEALCQAAKHEGPLHKCDISNSTEAGQKLFNMLRLGKSEPWTLALENVVGAKNMNVRPLLNYFEPLFTWLKDQNKNSFVGWSTDWSPYADQSIKVRISLKSALGDRAYEWNDNEMYLFRSSVAYAMRQYFLKVKNQMILFGEEDVRVANLKPRISFNFFVTAPKNVSDIIPRTEVEKAIRMSRSRINDAFRLNDNSLEFLGIQPTLGPPNQPPVSGGGGSTHTCPPCPAPELLGGPSVFLFPPKPKDTLMISRTPEVTCVVVDVSHEDPEVKFNWYVDGVEVHNAKTKPREEQYNSTYRVVSVLTVLHQDWLNGKEYKCKVSNKALPAPIEKTISKAKGQPREPQVYTLPPSREEMTKNQVSLTCLVKGFYPSDIAVEWESNGQPENNYKTTPPVLDSDGSFFLYSKLTVDKSRWQQGNVFSCSVMFEALHNHYTQKSLSLSPGK
With B3, the binding result in experiment [2] and in experiment [3] was “binds” throughout.

B4: EflACE2-Fc-[change] (Fc fusion)
chain: ETGSTIEEQAKYFLDKFNHEAEDLFYQSSLASWNYNTNITEENVQNMNNAGDKWSAFLKEQSTTAQMYPLQEIQNLTVKLQLQALQQNGSSVLSEDKSKRLNTILNTMSTIYSTGKVCNPDNPQECLLLEPGLNEIMANSLDYNERLWAWESWRSEVGKQLRPLYEEYVVLKNEMARANHYEDYGDYWRGDYEVNGVDGYDYSRGQLIEDVEHTFEEIKPLYEHLHAYVRAKLMNAYPSYISPIGCLPAHLLGDMWGRFWTNLYSLTVPFGQKPNIDVTDAMVDQAWDAQRIFKEAEKFFVSVGLPNMTQGFWEYSMLTDPGNVQKAVCHPTAWDLGKGDFRILMCTKVTMDDFLTAHHEMGHIQYDMAYAAQPFLLRNGANEGFHEAVGEIMSLSAATPKHLKSIGLLSPDFQEDNETEINFLLKQALTIVGTLPFTYMLEKWRWMVFKGEIPKDQWMKKWWEMKREIVGVVEPVPHDETYCDPASLFHVSNDYSFIRYYTRTLYQFQFQEALCQAAKHEGPLHKCDISNSTEAGQKLFNMLRLGKSEPWTLALENVVGAKNMNVRPLLNYFEPLFTWLKDQNKNSFVGWSTDWSPYADQSIKVRISLKSALGDRAYEWNDNEMYLFRSSVAYAMRQYFLKVKNQMILFGEEDVRVANLKPRISFNFFVTAPKNVSDIIPRTEVEKAIRMSRSRINDAFRLNDNSLEFLGIQPTLGPPNQPPVSGGGGSTHTCPPCPAPELLGGPSVFLFPPKPKDTLMISRTPEVTCVVVDVSHEDPEVKFNWYVDGVEVHNAKTKPREEQYNSTYRVVSVLTVLHQDWLNGKEYKCKVSNKALPAPIEKTISKAKGQPREPQVYTLPPSREEMTKNQVSLTCLVKGFYPSDIAVEWESNGQPENNYKTTPPVLDSDGSFFLYSKLTVDKSRWQQGNVFSCSVMYEALHNHYTQKSLSLSPGK
Consider B4, for which the binding result in experiment [4] is recorded as “no binding (tested: 5 µg/ml ACE2-Fc for opsonisation)”.
